The numbers were not newly measured in article PMC3742252, which cites them from elsewhere.

The target in this data set is TSH (Bos taurus) (UniProt P01217).

pKd: −log10 of the molar value.

On to “thyroid-stimulating hormone receptor (from UniProt Q8SPP9)”, for which the pKd was 9.00.

Broadly, the pKd is the Kd on a negative log10 scale, so that one unit is a factor of ten.
